The record followed here is the DeepSol protein solubility set.

The series is described as follows: soluble on expression in E. coli; label from the status in PepcDB or PDB records.
Consider “MSLTKPFDVTLTREIIKIESVYAKMIENENILYLRVTNFDKNVVDVASKELKKYPNVKGVILDLRNNPGGLLNQAIGLVNLFVDKGVIVSQKGRIASENQEYKADPKNKISNASLVVLVNGGSASASEIVSGALQDLKRGVIVGENTFGKGSVQQIIPINKTEALRLTIARYYLPSGRTIQAVGVKPDIEVFPGKVNTQEDGFSIKESDLKQHLESELEKIDKNKKEDKQENKDNKNLISQKQINDDAQLKSAIDTIKILNIKQGEGHHHHHH”, for which the “soluble on expression in E. coli” value is given as “soluble”. Then “MSLTKTLIVNAHPDFRNAAHYSVQLEQAFLQLFQTRFPNDTVDVLNLYDTVIPQATVPELLGIWEKQAQHVNLSIEEQRLFAINQQLLQQFKAHHRIVIAMPLHNFNVPARLKDYIDNILVARETFRYTENGSVGLMTDNYRVMLLQASGSIYTRNDRYTPMEFSRLYLDKMFTEIMGFDRFEIVRAQGLQTNGVAVSQALKQAKMDLKAAFERFYDEGHHHHHH”, with “soluble”; and “MSLTKVSAFFSTCKAGVFLGWDRNIDTSIAYTDGYSNRLDIISYDLCNWNGNNDSSSISWDSASTIRDLQKPNIPLIKQYKGPYAHLIKNVIISAHMPCPTGGTSNGSISPQDFATLANTKIQDINSSSPWFLQNYKAIVSKVGDGLEYYGHVGTVYFRPFHEVNGNWFWWGDKDVSQYKQLWINLHDYLVSKNSGCRGLTWLKFCYAPNSGKNAALYYPGDDYVDMVGMDAYSDNPSTDTYVKRAYAELTGGTYNGVTYPGIDKPFGFPELGPNVGGDYVDNKNRLIKKFDYKRWSDAIKLNYPKASYFIIWNGGYEPRNNDNGTSLFNMSYEGHHHHHH”, with “soluble”; and “MSLTLEDIARKLNISKNAVSLALANKPGVSEKTRQLVFQTAKELGYKFKEKEEQKGTIALIMTKNIIEDPYFFSAIVYSVENEIRKEGYDFSLYCISSEDEWNIEEILTSSSFEGIIIVSAISENVIKKIEEKKIPTVVIDNLVDSTCIDTVNTDNYRSTKAAIEYLIKQGFKHIGFIGDVNHAISYRERWEGFMAAHEEFDIEIDKKVCKIEGFKDFSKNPEPEIQAFLKSLEKMPQAFFCVSDLSTLLTASVLKEMGFQIPKDVSIVGFDDIELVKHFKPALSMIHIDRNYYGQRAVKQLLERIKCPNKPVEDVRIFCRLNIRKSIRAEGHHHHHH”, with “not soluble”. Then “MSLTMPVNTIMGLFAKSPIKPLQRHVVCVNECCSHLINFFEVCNKGDWEKAGEIRAQISHLEKEADVLKREIRLKLPRGLFMPVDRSDMLELLTQQDKLANLAKDIAGRVYGRQLVIPEPLQENFIAYVRRCLDAANQAQNVINELDELLETGFKGREVTLVAEMIHQLDVIEDDTDSMQIRLRQQLMAIESKMNPIDVMFLYKILEWVGGIADQAQRVGARLELMLSRSEGHHHHHH”, with “soluble”; and “MSLTNIEEFMPEKLAKAIANPLFPELDSLLRSGRHVASEDLDNHALLCEFEHELGLFYQRYNAELVKAPEGFFYLRPRSTSFIARSVLAEIDMLVGKVLCFLYLSPERLAHEGIFTNQELFDELLVLADEQKLMKLVTNRASGSDLDKEKLFDKVRTSLRRLKRLGMIIPVGEQGKFRISEAVFRFGADVRTSDDMKEAQLRLIRDGEAVVVHQEEASQSSLDLDADSNEKPAEEQHELELEGDLLEHHHHHH”, with “soluble”; and “MSLTNKELKKNLEDCVNCRLCYKVCPMMNTFGESPKNILRDIDKNKISYDEIAYSCMLCNACTEACPKDINLKEMFQNLRIKSYRENLKNTSKKFNLKVVQNHQKGSFSKFLTSKNNHKKIKRVFIPGCSLSGYNNEIIFKIKDYLIENLGKVEILLKCCGKPSKDIGNLELFESNLNDIENNLKIKEVDEIIVACENCYKTFGSAFKDIKVITLWEVINEFGVPKELKNKYSDLKEEFALHDPCPIKKEEQIHEAVRSILKDLGIKIVEFEKNRSKTECCGCGGMVGVTNKELWLSQKNKRANSTECENIVSYCESCVNTFKSSDKNALHILDFIFNEDVINGKAKSQKNISTINQWINRIKLANKVGKEGHHHHHH”, with “not soluble”. Then “MSLTNKKNLRVVALAPTGRYFASIISSLEILETAAEFAEFQGFMTHVVTPNNRPLIGRGGISVQPTAQWQSFDFTNILIIGSIGDPLESLDNIDPALFDWIRELHLKGSKIVAIDTGIFVVAKAGLLQQNKAVMHSYFAHLFGELFPEIMLMTEQKALIDGNVYLSSGPYSHSSVMLEIVEEYFGKHTRNLGNQFLSTIESSGNSHSYCDVFRYMQHRDELILKIQKWILTTDLDIVSISDLANEACLSERQLKRRFKEATSISPLKFIQLGRLSFAKELLRSTKLSIDEVASRSGYVDTQFFRQIFKRENDCSPLEYRKRNQVKAEGHHHHHH”, with “soluble”; and “MSLTNLTVHTLEKDDIDSIIEIENLCFPTPWTKESMEGELRNKFAKYVVIKNNNLVVGYGGLWLIIDEGHITNIAVHPEFRGMGIGNKILEELIKLCEKRNIPSMTLEVRISNTIAQNLYKKFGFKEAGVRKKYYGDNDEDALIMWRNEGHHHHHH”, with “soluble”. For “MSLTPRVNSGGAVVADAYGRPLKDLRIAVTPECNLDCFFCHMEGATESGPMRPGSWSPVLSVEDYDIIGEAASRLGVDSFKLTGGEPLIRGDVDKIVAVLARYGEVSMTTNGILLPLKASSLKRAGLARVNVSLHSISEEVYEKITRRRAVKLALKGVEAALKAGLRVKVNMVLLRGLNEGEFWRLLRLAEDLGFDLQVIEVHPAGRGRKVLSSFRRPIDVVEERLSSMAVAVETGRLHNRRVYRLPSGVRVYLVDPVENPVFCMGCYRVRLTWDGRLLPCIYWKGPYPSVAEALKRGGSREEKVWRVMKILLEANALRRPTYLFRLHDGQEPQAPSTGRGLRLTLPGKAKAERLAYSTLKAPLIEG”, the “soluble on expression in E. coli” value is given as “not soluble”.

Take “MSLTQEFIDKVSSYLTPDVDIAPISQGAEAIVFTTTTHPYLPRAKDSHQKYIIKYRPPKRYRHPQIDQALTKHRTLNESRLLAKLYLIPGLCVPQLIACDPYNGFIWLEFLGEDLPGGHGFSNLKNFLWMHDQDPYSDLVATTLRKVGRQIGLLHWNDYCHGDLTSSNIVLVRDGARWTPHLIDFGLGSVSNLVEDKGVDLYVLERAILSTHSKHAEKYNAWIMEGFEEVYREQGAKGAKKLKEVTKRFEEVRLRGRKRSMLGEGHHHHHH”: the “soluble on expression in E. coli” value is “not soluble”. As for “MSLTQHTLWLLRFTYKQLKEKLTVSDSKKLFHEQFPYVIPGLYKRIVDEMLVELNLLNHQNEFIQDDLFCVGLTETFKELTKGYKPEEHLRVLFESLCNSSNFEPKKIKEASKKTLEVYKDKSLKEISILLKQKSDSNLYSSRIMNLGIYLIIANATDFKDIKDPEKNKIISDIINKLNLSFNKAEKDIGIYKSSILKMEQAKELLQEAKIKDKKEKEGHHHHHH”, the entry is “not soluble”.

On to “MSLTRPVTLSEPHFSQHTLNKYASLMAQGNGYLGLRASHEEDYTRQTRGMYLAGLYHRAGKGEINELVNLPDILGMEIAINGEVFSLSHEAWQRELDFASGELRRNVVWRTSNGAGYTIASRRFVSADQLPLIALEITITPLDADASVLISTGIDATQTNHGRQHLDETQVRVFGQHLMQGIYTTQDGRSDVAISCCCKVSGDVQQCYTAKERRLLQHTSAQLHAGETVTLQKLVWIDWRDDRQAVLDEWGSASLRQLEICAQQSYDQLLAASTENWRQWWQKRRITVNGGDAHDQQALDYALYHLRIMTPAHDERSSIAAKGLTGEGYKGHVFWDTEVFLLPFHLFSDPTVARSLLRYRWHNLPGAQEKARRSGWQGALFPWESARSGEEETPEFAAINIRTGLRQKVASAQAEHHLVADIAWAVIQYWQTTGDESFIAHEGMALLLETAKFWISRAVRVNDRLEIHDVIGPDEYTEHVNNNAFTSYMARYNVQQALNIARQFGCSDDAFIHRAEMFLKELWMPETQPDGVLPQDDSFMAKPAINLAKYKAAAGKQTILLDYSRAEVNEMQILKQADVVMLNYMLPEQFSAVSCLANLQFYEPRTIHDSSLSKAIHGIVAARCGLLTQSYQFWREGTEIDLGADPHSCDDGIHAAATGAIWLGAIQGFAGVSVRDGELHLNPALPEQWQQLSFPLFWQGCELQVTLDAQRIAIRTSAPVSLRLNGQLISVAEESVFCLGDFILPFNGTATTHQEDEEGHHHHHH”, for which the “soluble on expression in E. coli” value is given as “soluble”. With “MSLTRQMNILLVEDDDLDAMMIKRAMAQVAPDAHLIRATDGVEALEIVQSNRVEDPYFILLDVNMPRMNGHEFLKELRASSEHSDTMVFMFTTSESARDIARAYQERANGYIVKPHGKAAMNSILDTLQRYWTTCEEGHHHHHH”, the “soluble on expression in E. coli” value was “soluble”.
